IntAct's records for PubMed 19151721

B1: SLAM family member 7 (Mus musculus), Q8BHK6 (parent)
chain: MARFSTYIIFTSVLCQLTVTAASGTLKKVAGALDGSVTFTLNITEIKVDYVVWTFNTFFLAMVKKDGVTSQSSNKERIVFPDGLYSMKLSQLKKNDSGAYRAEIYSTSSQASLIQEYVLHVYKHLSRPKVTIDRQSNKNGTCVINLTCSTDQDGENVTYSWKAVGQGDNQFHDGATLSIAWRSGEKDQALTCMARNPVSNSFSTPVFPQKLCEDAATDLTSLRGILYILCFSAVLILFAVLLTIFHTTWIKKGKGCEEDKKRVDRHQEMPDLCPHLEENADYDTIPYTEKRRPEEDAPNTFYSTVQIPKVVKSPSSLPAKPLVPRSLSFENVI
partner: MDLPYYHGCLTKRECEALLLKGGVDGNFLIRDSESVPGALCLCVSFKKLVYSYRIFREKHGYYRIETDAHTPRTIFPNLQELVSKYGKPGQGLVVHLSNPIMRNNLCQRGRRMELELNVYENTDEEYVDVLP

Variants of: B1
Conditions: with sh21b_mouse Sh2d1b
With MARFSTYIIFTSVLCQLTVTAASGTLKKVAGALDGSVTFTLNITEIKVDYVVWTFNTFFLAMVKKDGVTSQSSNKERIVFPDGLYSMKLSQLKKNDSGAYRAEIYSTSSQASLIQEYVLHVYKHLSRPKVTIDRQSNKNGTCVINLTCSTDQDGENVTYSWKAVGQGDNQFHDGATLSIAWRSGEKDQALTCMARNPVSNSFSTPVFPQKLCEDAATDLTSLRGILYILCFSAVLILFAVLLTIFHTTWIKKGKGCEEDKKRVDRHQEMPDLCPHLEENADYDTIPYTEKRRPEEDAPNTFFSTVQIPKVVKSPSSLPAKPLVPRSLSFENVI [Y302F] the “effect of a mutation on the interaction” value was “disrupting interaction”. MARFSTYIIFTSVLCQLTVTAASGTLKKVAGALDGSVTFTLNITEIKVDYVVWTFNTFFLAMVKKDGVTSQSSNKERIVFPDGLYSMKLSQLKKNDSGAYRAEIYSTSSQASLIQEYVLHVYKHLSRPKVTIDRQSNKNGTCVINLTCSTDQDGENVTYSWKAVGQGDNQFHDGATLSIAWRSGEKDQALTCMARNPVSNSFSTPVFPQKLCEDAATDLTSLRGILYILCFSAVLILFAVLLTIFHTTWIKKGKGCEEDKKRVDRHQEMPDLCPHLEENADFDTIPFTEKRRPEEDAPNTFFSTVQIPKVVKSPSSLPAKPLVPRSLSFENVI [Y282F;Y287F;Y302F] was tested, and the “effect of a mutation on the interaction” value was “disrupting interaction”.
